Data reported in a protein production outcome set (Wang et al. 2014).

assay: label from the status in PepcDB records

Sequence | protein production
MQINLSDLHLLRPLWLLLIIPGALLPWLWQRRHDLLARLRGTIAPHLLTHLLVTPQDSQRLRPVHLLSALLVLGALAAAGPTWEQDRPDFLHNRAPLIIALDLSPSMNASDLPPSRLEAAKHKLQQLVQQRRGARTGLIAYAGSAHLVLPASDDPALLDSFIQALGSDLIQRPGKDVLGVIRQAQRLLQAEHSPGSLLLISDGADTSQLAAIKQQLAGSPLQVLILAAGSSDGGIIRDASGQPLTDSDGRPQLGRFDSAALKQLAAASDAPLGSLTLNDDDLDWVQLHAQQHFTAASAPDRQLQWKDAGYWLCWPLLLLAFCCVRRGWSLNWLGALLLGLGLSLQAPTARANTLADAFFSADQQGRWAFEHGHYPAAAALFTDPYWKGIAAYKAADFDLALASFARLDSAAAYFYLGNIHVRRFKFDEAIAAYQQALKLQPRFAEASANLALAQALKKDTESAQQNAPEVKPDAIKFDKPAGKGQNKKVETQEAASDELWLQNLSTSPAAFLRQKFSLQDLDNTTPQVTP | failed
MQIVGSVALMLWGIRLVRTGFIRAFGGSLRHYLGLAISGRLTSFGVGLAITVFLQSSTATALIISSFASKGLVQTPAALAVMLGADVGTSISAQILSFNLSWLAYAAILIGFFLHGRGGRFATRQIGRAIVGLGMVLLALSLIRMSSQPLREADGLAYVLSALEGEVLLTLFLMAVLTWLVHSSLAVVLLTASLASAGIVPTGTGLVMILGANIGGTIPPIIATLSTGPQSQHAALGNAGFKLLASLLVLPFLPWVGERLQSFGGDAQVLVNFHLTFNLLVATLFLPWVQTAAALLARVFPDTGAGAVEPVTKYLDKELITSPALALTSATRELYRVNERIEDSLALLSGGIAARDQVDVQGAQENRARVAAMLEEFKFYLTDITREEISESDSAKAMNLLLIATNLGHVSELVTNAVELTASTSHEQIRFSEAGTAELLEMLELIHQGIRLALSAALLGDAKVRKTLQKGRKELERMVDESRQAHFSRLAEGTLSSISTTSLHNELLRDFSRIYYHIYTASKIGGRDSSVMIRG | failed
MQKEKAPIGLYFLLIAVMASWGFNVTMTKVLVSYFPTVTMTSFRIFTAAITVIIILFITKKLRLPTKREFGLIFLASIFNIVIHHFFLSNGLKLTTGTNAGLILGSAPIVVAIFSVVFLRERIGAWRALGFLAGIFGVSLVVLSNGTGISGISLGDIDIFIAMASQAFSFIIIKKLAGSMDTGLMTGYMLFLGSVMLFALSRFMEPGGVSELVAVHSWKLWLLFVVSAVVATAFGNFVYNYAVGKIGPSRSAIFMNFNPLFSLIGALLFLGEAIKIPQLVGFVFIIIGVLLGSGALMDLIYERKKTKVRDPEKLLEKEV | failed
MQKFIRDFTLPAAFAGFVTFLIGISVSSVLVIQAAQILGANTPQITSWFWALGIGIGLSGLILSWKFKYPVATSWSTAGLALIIATGSGYSLHEAIGAFLLCGLLTALLGFFGVFQKALAYIPQSLTSAMLAGVLLKFGIAIFGNMQDHWQFIISLLAVYIVSKRLWPRYCIVITVIAGVMICPFFMEFHLPTLHWELAKPEWITPHFTGSAILGLALPLFVINMASQYLPGIAMIKSYGYNPNVNQLIGWTGATQTLLAPFGCYTVNIAAISAAVSLDDQVHPDPAKRYIAGISCGFFYILMGLFAATLTSLLMSFPSLFIVALAGIALFGTISHNIAIAFQEPTDREAALLTFLCSASGIQFFGIGSAFWGLIVGVIVSMVLKTKFKKS | failed
MQKGKDLTLRLMIVDDSVESAETIVTALRNGGIAVRPSRPQSQEELASMLSGQIDLAILGQAQQIPMSALQTQIAGSGKDIPILLLAERIEENALVEAASHGVRAIALRHRPAHLLALVRSEWDDLQARRGLRRIEAQMRETERRCDALIASSRDPIAYVHEGMHIRANDAYLEMFGFESFDDVEGISLLDMIAAQYVDDFKQLLKAMSKGEPPPAQYKLDARRVEGDTFPATMEFATATYEGEPCIQVVFRRREEFDPELAREVEDLRQRDQVTGLLNRPTFMVALEQAVAQAGRSEGQSGFLLIEPDHYARILPEFGLDSADALIAALAAHVASVLDDSVLAARFGEHSFALLLNGNYARTHALAETVRNAFAQHVFSVGTRSATVTVSIGGVQIGEKIASIGQVLNRGTEAVRTTAELGGNAVSIYDPAAADRAEEERIERWVEQLREALVGDGFLLHYQPVLNLQGEPLELYQAFLRLERNGEMMSPNAFMAIAEEHDLVTEIDRWVVARAIRQLGERQRAGHKTHLLVRIGPNSFSDPQMIDTIREQLAVYGVPGERLWLQTPESKVFTHLRNAQQFLAAVSAMDCKVGLEQFGSGLDSFQLLAHFHPAFLKLDRGITGDIASARDSQEKIREITSRAQPAGILTMAEFVADAQSMSSFFSAGVDYVQGDFVAPTGPLMNYEFG | failed
MQKGNIRIAIDKGGTFTDCVGNIGTGKQEHDTVIKLLSVDPKNYPDAPLEGIRRLLEVLEHKTIPRGIPLDISNVRSLRMGTTLATNCALERNGERCAFITTKGFKDSLLIGDQTRPDIFNLNIKKVVPLYDTVVEIDERVTLEDFSEDPYFTKSSPNEQEGILEGNSGEMVRVIKKPDESSVRSILKVLYASGIKSIAIAFLHSYTFPDHERIVGNIAREIGFSHVSLSSEVSPMIKFLPRAHSSVADAYLTPVIKKYLNSISAGLSHAEDTHIQFMQSDGGLVDGGKFSGLKSILSGPAGGVIGYSSTCYDKNNNIPLIGFDMGGTSTDVSRYGDGRLEHVFETVTAGIIIQSPQLDIHTVAAGGSSILSWKNGLFRVGPDSAAADPGPAAYRKGGPLTITDANLFLGRLVPEFFPKIFGPNEDESLDLETTTLKFRELTDVINKDLNSNLTMEEVAYGFIKVANECMARPVRAITEAKGHVVSQHRLVSFGGAGGQHAIAVADSLGIDTVLIHRYSSILSAYGIFLADVIEENQEPCSFILGEPETILKVKKRFLELSKNSIKNLLSQSFSREDIVLERYLNLRYEGTETSLMILQKYDDQWNFREWFSEAHKKEFGFSFDDKRIIIDDIRIRAIGKSGVRKEKTVDEQLIEISHFKKADVSKDASFTQKAYFDNKWVDTAVFKIDDLPAGTIIEGPAILADGTQTNIILPNSQATILNSHIFIKINQKAAKTLSKSGYELDIDPILLSIFSHRFMDIALQMGTQLRKTSVSTNVKERLDFSCALFDSKGNLVANAPHVPVHLGSMSTCISAQAKLWEGKLKPGDVLITNHPDIGGTHLPDITVITPSFSSTGELIFYVASRAHHADIGGILPGSVPPNSKELYEEGTAIYSELVVKEGIFQEELIYKLFVEDPGKYPGCSGSRRFSDNISDLKAQVAANTKGIQLIGSLTKEYDLATILKYMAAIQTNASESIKKMLAKMVEHFGTTKFSGEDRLDDGSLIKLQVIIRPEKEEYIFNFDGTSPQVYGNLNAPEAITNSAILYCLRCLVGEDIPLNQGCLKPLTIKIPAGSLLSPRSGAAVVGGNVLTSQRVTDVILKTFNVMADSQGDCNNFTFGTGGNSGNKTDKQIKGFGYYETICGGSGAGADSWRGSGWNGSDAVHTNMTNTRMTDTEVFERRYPVLLKEFSIRRGSGGKGKYTGGNGVVRDVQFRKAVTASILSERRVIGPHGIKGGQDGSRGENLWVRHSTGALINVGGKNTIYAQPGDRFIIKTPGGGGFGQYKD | failed
MQKIIDDSLELAKKLQDSISNHLSDQEKAFHSKMQKLLNNPENKVMLIELMDRSFRCLDNKARFEMIEHVLDKYKSREIFSPFEKVLLMGFLSFGKMLPDMSVPFFVNKIRSDTKAMVLDQEESQLKERILKRKNEKIILNVNFIGEEVLGEEEANARFEKYSQALKSNYIQYISIKITTIFSQINILDFEYSKKEIVKRLDALYALALEEEKKQGMPKFINLDMEEFRDLELTVESFMESIAKFDLNAGIVLQAYIPDSYEYLKKLHAFSKERVLKGLKPIKIRFVKGANMESEETIASVKDWALPTFSNKQDTDSNYNKMLDFVLEGDNYKYIHIGAASHNIFEIAYVYTRIHAINDPVVLEHFSFEMLEGMSLQASQELKEMHKLILYAPVCDEAHFNNAIAYLVRRLDENTSSDNFMKAFFNLKVGTSEWKDQEQRFLNSLKGIATLDNATHRTQDRNAKQSGHTTYPNHSFKNESDTDFILKANREWAKKVREKMRNAPILELYPEMDGRFEDPNLTPLEVFDRIHHKKIASVHLADKEAILKALEVAKSDKSRFSQKSFTEIHALMSQTAQLFRERRGDLIGISALEVGKTFAETDAEVSEAIDFLEFYPYSLRVLQEQNTKTQFTPKGVGVVIAPWNFPVGISVGTIAAPLATGNRVIYKPSSLSSVTGYKLCECFWDAGVPRDALIYLPSKGSDISEHLLRDESIQFAILTGGEDTAYKMLKANPTLALSAETGGKNATIVSKMADRDQAIKNVIHSAFSNSGQKCSATSLLVLEKEVYEDENFKKTLIDATLSLSVGDPFDFKNKIGALADKPNEKVIKAIDELKSYENYEIPVSFVNDNPYLMKPSIKYGTKKGDFTHQTELFTPILSVMEAKDLDEAIEIANSTGYGLTSALESLDEREWEYYLERIEAGNIYINKPTTGAIVLRQPFGGVKKSAVGFGRKVGIFNYITQFVNICQEEEDENALKNPLSEALENLTQKGYDEHTHELKRAIFMAKSYAYHYKHEFSQTKDYVKIRGEDNLFSYTKVKSVGYRITEKDTLSDMLGVALACLISQIPLTLSIENERTNKDLTFFLECLKALQASAPIVYESLQKFSEKLNTFNRVRYLKSDLDLLHEQASALGMVLATAKPCLNGRFELLYYHLERSVSISYHRYGNLGSRVLRQPTCHKSCCAEK | failed
MQKNFSVVKKYVNLILDIVLGILGVFLLVFMASYLVDLATYLMKPMTPDNFSVIMQEIISFFMLFEFIMMILRYIQEGHHIPIRYLILICLTAILRQLMVAHGDGLQTLLLSLSILLLVVVLFILGLNGSKFYTLGKAKVEEDHEQDFHH | failed
MQKNLDSLLENLRAEIDALDNELSDLLDKRLEIALKIALIKQESPIYCPKREQEILKRLSQRDFKHLNGEILTGFYTEVFKISRKFQENALKELKK | failed
MQKPAVTVMVKAARLAGNVLLRGINKLDALNVVQKGRMDYASEVDADAEKVIIKELKRGYPEYAVFGEEGGVQGGKSGRYTWVIDPLDGTSNYLRGFPHYCVSIALVENGEPTDAVIFDPLRNELFTASRGAGAVLNDRRIRIAERKDLEGAMVHTGFPPRERARASAQLKCVDALLVQAEDVRRTGSAALDLAYVACGRADAYFEAGVKAWDIAAGVLLVREAGGRVCDYKGATPPRMDNMGPETQQIVAGNIKISDALQKVIVNTGYAREFDAKF | failed
MQKPHLLITSAGRRAKLVEYFVKEFKTGRVSTADCSPLASALYMADQHYIVPKIDEVEYIDHLLTLCQDEGVTALLTLIDPELGLLAQATERFQAIGVTVIVSPYAACELCFDKYTMYEYCLRQGIAHARTYATMASFEEALAAGEVQLPVFVKPRNGSASIEVRRVETVEEVEQLFSKNTDLIVQELLVGQELGVDAYVDLISGKVTSIFIKEKLTMRAGETDKSRSVLRDDVFELVEHVLDGSGLVGPLDFDLFDVAGTLYLSEINPRFGGGYPHAYECGVNFPAQLYRNLMHEINVPQIGQYLDDIYMLKHDTVTLISAAELQKIKR | not failed
MQKVEGIIFDMDGVLFDSERISLEFWMETFEKYGYTMTKEIYTSVMGRNRKGIIEGLTDIYDSSVPIIDLYDEKTKNMIEFMERKGAPIKLGVNELISFLKENGYKMAVATSTKRERAVKRLAKANLKDYFDAIVCGDDVVNSKPNPEIFLKAAKKINVNPKNCIVIEDSPMGVEAAYNGGIRCINVPDLKEPDEQIKSQSHKILENLLEVREYLKSLNSKECHNL | failed
MQLAINKIYRRIFISMDTGVSDHGIEIIGVDPIPGTSRIMGPWKMTVFWSMASASALTPLIGYLLYPLGLIDMLIAISIAFLIGFVPVGIFSEMGRTIPVPAMIISRKTLGYASSSVMSLIFTFVNLGWFGLNDITGGLILASVTSSSPIIWISFMAIVQIMLVLFGAKYLEKFYRYTAILLVFSYGILTYLLFRVYRPDMYAVLHPSTAVNWGSAIGLVLAFSILAWAYKVSTISRFARKREAGEPALERSGFFMAPSIGIIVPVYVMGSLGLISEAAAENWNLAAVRFSGLGSIGGAVAIIASIGASLAIIHTNSMNLYPATADLLSAIEGLFNKRLRKFAQPISTAILGTLGAVLAYAGILNYASGFLNLSGSIIFPFTFVLIADWFMMNRHSANSADFYSIPKNGLGNVNLAGISGLIVGVILNLIHINLLNALFLYVPQDIFGSLAGTAVFILVLKAVQKKQAAQEENRSDTVAE | failed
